This is an account of results in publication PMC10076222, “From primordial clocks to circadian oscillators” (Nature, 2023).

The term Kd denotes the free concentration of one partner at which half of the binding sites on the other are occupied at equilibrium, for simple one-to-one binding. What is called stoichiometry N is a count of units in the complex or per binding partner.

Data set [1] concerns the target T1, KaiCRS-Δcoil (Cereibacter sphaeroides, UniProt A0AAX7FLD9, E415S/E416S).
T1 construct: C-terminal coiled-coil truncated at Glu490 (stop codon introduced at position 490)
Put plainly: X-ray crystal structure. Format: binding. The conditions noted are these: ADP in all active sites.

In data set [2] the target is KaiCRS (Cereibacter sphaeroides, UniProt A0AAX7FLD9, E415S/E416S). Briefly: […] phosphoryl transfer from phosphoserine to ADP, TLC autoradiography. It is filed as biochemical. As to conditions: 4 mM ADP, ATP synthase reaction in CII domain, Ser413, pH 6.5, 30 °C.
Chain of KaiCRS (A0AAX7FLD9 entry or part of it E415S/E416S): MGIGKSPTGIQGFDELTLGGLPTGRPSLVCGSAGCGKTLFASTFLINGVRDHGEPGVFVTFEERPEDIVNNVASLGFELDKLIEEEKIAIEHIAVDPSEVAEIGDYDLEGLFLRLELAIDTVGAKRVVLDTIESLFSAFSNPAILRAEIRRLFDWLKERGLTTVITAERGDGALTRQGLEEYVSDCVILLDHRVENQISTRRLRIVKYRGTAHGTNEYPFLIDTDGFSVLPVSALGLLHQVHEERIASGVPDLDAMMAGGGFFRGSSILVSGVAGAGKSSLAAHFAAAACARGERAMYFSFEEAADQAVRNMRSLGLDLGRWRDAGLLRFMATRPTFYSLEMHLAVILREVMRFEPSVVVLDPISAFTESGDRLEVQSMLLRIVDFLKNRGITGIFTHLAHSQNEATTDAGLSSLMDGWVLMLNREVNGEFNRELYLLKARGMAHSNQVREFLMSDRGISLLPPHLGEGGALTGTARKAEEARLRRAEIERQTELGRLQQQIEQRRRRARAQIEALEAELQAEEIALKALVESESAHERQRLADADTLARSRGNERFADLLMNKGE
Data set [3] concerns the target KaiCRS-S413E/S414E (phosphomimetic mutant) (Rhodobacter sphaeroides strain KD131/KCTC 12085). Briefly: fluorescence polarisation; anisotropy competition, 30 °C: KaiBRS-6IAF (0.2-0.4 μM) with KaiCRS (1 μM), unlabelled KaiBRS 0-50 μM, 20 mM MOPS pH 6.5, 50 mM NaCl, 2 mM TCEP, 10 mM MgCl2, 4 mM ADP; 4 h or 12 h; Kd calculated from IC50.
Data set [4] concerns the target KaiC from Rhodobacter sphaeroides KD131, wild type, full length (KaiCRS) (Rhodobacter sphaeroides strain KD131/KCTC 12085). The description is as above.
For data set [5] the target is unchanged.
Data set [6] deals with KaiCRS-S413E/S414E (phosphomimetic mutant) (Rhodobacter sphaeroides strain KD131/KCTC 12085). Briefly: cryo-EM structure; KaiCRS-S413E/S414E:KaiBRS complex, 20 mM MOPS pH 6.50, 50 mM NaCl, 2 mM TCEP, 10 mM MgCl2, 2 mM ATP; ADP in the CI domain.
Data set [7] concerns the target KaiC from Rhodobacter sphaeroides KD131, wild type, full length (KaiCRS) (Rhodobacter sphaeroides strain KD131/KCTC 12085). This is another data set of the same source.
For data set [8] the target is unchanged. Briefly: SEC; Superdex-200 10/300 GL, unphosphorylated KaiCRS (40 μM) bound with ADP, buffer with 0.1 mM ADP instead of ATP, 4 °C.
For data set [9] the target is unchanged. Put plainly: SEC; Superdex-200 10/300 GL, about 40-80 μM protein, 20 mM MOPS pH 6.5, 50 mM NaCl, 2 mM TCEP, 10 mM MgCl2, 1 mM ATP, 4 °C. For orientation: Size exclusion chromatography separates by hydrodynamic size, large species first.
The target is the same in data set [10]. Put plainly: AUC; sedimentation velocity, 30,000 r.p.m., 20 °C, 295 nm; 100 μM protein, 1 mM ATP (KaiCRS forms: 20 mM MOPS pH 6.5, 50 mM NaCl; KaiCSE: 20 mM MOPS pH 8.0, 150 mM NaCl).
For data set [11] the target is unchanged. Briefly: crystal structure; KaiCRS, sitting drop at 291 K; protein 10 mg/ml in 20 mM MOPS pH 6.5, 50 mM NaCl, 2 mM TCEP, 5 mM MgCl2, 3 mM ATP, 1 mM AMPPCP; 200 mM MgCl2, 100 mM HEPES pH 7.5, 30% PEG 400.
For data set [12], the target named is KaiCRS-CI domain (KaiCIRS) (Rhodobacter sphaeroides strain KD131/KCTC 12085). Put plainly: SEC; Superdex-200 10/300 GL, about 40-80 μM protein, 20 mM MOPS pH 6.5, 50 mM NaCl, 2 mM TCEP, 10 mM MgCl2, 1 mM ATP, 4 °C.
Data set [13] concerns the target His6-MBP-TEV-KaiBRS (KaiBRS-tag) (Rhodobacter sphaeroides strain KD131/KCTC 12085). Briefly: pull-down; as a10 but with 4 mM ATP and an ATP-recycling system instead of ADP.
In data set [14] the target is KaiCRS-S413E/S414E (phosphomimetic mutant) (Rhodobacter sphaeroides strain KD131/KCTC 12085). Put plainly: cryo-EM structure; KaiCRS-S413E/S414E alone, 4.3 mg/ml in 20 mM MOPS pH 6.50, 50 mM NaCl, 2 mM TCEP, 10 mM MgCl2, 2 mM ATP; hexamers processed with C6, dodecamer with D6 symmetry.
Data set [15] concerns the target KaiCRS-Δcoil (KaiCRS truncated at residue Glu490) (Rhodobacter sphaeroides strain KD131/KCTC 12085). Put plainly: SEC; Superdex-200 10/300 GL, about 40-80 μM protein, 20 mM MOPS pH 6.5, 50 mM NaCl, 2 mM TCEP, 10 mM MgCl2, 1 mM ATP, 4 °C.
Data set [16] has the same target. Briefly: AUC; sedimentation velocity, 30,000 r.p.m., 20 °C, 295 nm; 100 μM protein, 1 mM ATP (KaiCRS forms: 20 mM MOPS pH 6.5, 50 mM NaCl; KaiCSE: 20 mM MOPS pH 8.0, 150 mM NaCl).
For data set [17] the target is unchanged. Briefly: crystal structure; KaiCRS-Δcoil, sitting drop at 291 K; 200 mM ammonium acetate, 100 mM sodium citrate pH 5.6, 30% PEG 4,000; space group C2221, three monomers in the asymmetric unit, hexamer by PISA.
Data set [18] deals with the molecule itself. Briefly: SEC; Superdex-75 10/300 GL, KaiBRS 0.5 mM, 20 mM MOPS pH 6.5, 50 mM NaCl, 2 mM TCEP, 4 °C.
Data set [19] deals with the molecule itself. Briefly: AUC; sedimentation velocity, 30,000 r.p.m., 20 °C, 295 nm; 100 μM protein, 1 mM ATP (KaiCRS forms: 20 mM MOPS pH 6.5, 50 mM NaCl; KaiCSE: 20 mM MOPS pH 8.0, 150 mM NaCl).

Chain of His6-MBP-TEV-KaiBRS (KaiBRS-tag) (Rhodobacter sphaeroides strain KD131/KCTC 12085) (main, as listed by the source): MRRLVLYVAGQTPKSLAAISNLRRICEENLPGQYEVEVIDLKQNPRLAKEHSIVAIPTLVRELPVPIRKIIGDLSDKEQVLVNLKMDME
T1 sequence (A0AAX7FLD9 entry or part of it E415S/E416S): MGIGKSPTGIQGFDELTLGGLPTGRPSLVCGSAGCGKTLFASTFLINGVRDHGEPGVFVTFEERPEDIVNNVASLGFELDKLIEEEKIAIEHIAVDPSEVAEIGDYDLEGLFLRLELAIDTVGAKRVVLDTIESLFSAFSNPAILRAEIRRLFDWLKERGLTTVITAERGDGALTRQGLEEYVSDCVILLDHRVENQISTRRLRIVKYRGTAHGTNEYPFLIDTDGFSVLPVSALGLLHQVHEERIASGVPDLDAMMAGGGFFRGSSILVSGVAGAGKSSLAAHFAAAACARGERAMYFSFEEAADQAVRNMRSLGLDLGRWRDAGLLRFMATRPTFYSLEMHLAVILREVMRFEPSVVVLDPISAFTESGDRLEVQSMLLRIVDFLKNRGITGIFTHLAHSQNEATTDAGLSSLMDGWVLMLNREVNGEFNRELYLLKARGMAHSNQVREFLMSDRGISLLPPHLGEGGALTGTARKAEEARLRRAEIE

Regarding `Nc1ncnc2c1ncn2[C@@H]1O[C@H](COP(=O)(O)OP(=O)(O)O)[C@@H](O)[C@H]1O` [ADP], the X-ray crystal structure result in [1] is given as “contained three monomers in the asymmetric unit, with ADP present in all active sites”. Besides, the “32P phosphoryl transfer from phosphoserine to ADP, TLC autoradiography” value in [2] is given as “KaiCRS undergoes dephosphorylation through an ATP synthase mechanism”.

Turning to “KaiB from Rhodobacter sphaeroides KD131 (KaiBRS), tag cleaved (natural protein)”, the Kd in [3] was 790 nM; in data set [4], 420 nM. In addition, in [5], the ATPase activity of KaiCRS (3.5 μM) with KaiBRS (3.5 μM) in 4 mM ATP, ADP by HPLC, 20-35 °C (with KaiBRS 176, 1052, 1557, 2584; alone 108, 163, 208, 300 day^-1 KaiC^-1) was 2580 ATP/day/KaiC. In data set [6], the stoichiometry N (KaiBRS per KaiCRS dodecamer) stood at 12. Further, the fold increase in ATPase activity of KaiCRS with KaiBRS at 30 °C in [7] stood at 7.5 fold.

As for “KaiC from Rhodobacter sphaeroides KD131, wild type, full length (KaiCRS) (enzyme)”, the stoichiometry N in data set [8], in data set [9], in data set [10] and in [11] was 12 each time.

With “KaiCRS-CI domain (KaiCIRS) (domain or fragment)”, in [12], the stoichiometry N was determined as 6.

On to KaiCRS-S413A/S414A (enzyme), for which, in [13], the percent co-eluted is less than 30%.

In the case of “KaiCRS-S413E/S414E (phosphomimetic mutant) (enzyme)”, the stoichiometry N in data set [14] and in [6] was 12 in each case. In [13], this molecule yielded a percent co-eluted of less than 30%.

As to “KaiCRS-Δcoil (KaiCRS truncated at residue Glu490) (domain or fragment)”, the stoichiometry N in data set [15], in data set [16] and in [17] was 6 in each case.

“phosphorylated wild-type KaiCRS (ATP-bound, with ATP-recycling system) (enzyme)” had a percent co-eluted in [13] of less than 30%.

B1: KaiB from Synechococcus elongatus PCC 7942 (KaiBSE) (natural protein, UniProt Q79PF5 1-102, looked up)
chain: MSPRKTYILKLYVAGNTPNSVRALKTLKNILEVEFQGVYALKVIDVLKNPQLAEEDKILATPTLAKVLPLPVRRIIGDLSDREKVLIGLDLLYGELQDSDDF
notes: KaiB of Synechococcus elongatus PCC 7942
With B1, the “stoichiometry N” value in data set [18] was determined as 4.

B2: KaiC from Synechococcus elongatus PCC 7942 (KaiCSE) (enzyme)
chain: MTSAEMTSPNNNSEHQAIAKMRTMIEGFDDISHGGLPIGRSTLVSGTSGTGKTLFSIQFLYNGIIEFDEPGVFVTFEETPQDIIKNARSFGWDLAKLVDEGKLFILDASPDPEGQEVVGGFDLSALIERINYAIQKYRARRVSIDSVTSVFQQYDASSVVRRELFRLVARLKQIGATTVMTTERIEEYGPIARYGVEEFVSDNVVILRNVLEGERRRRTLEILKLRGTSHMKGEYPFTITDHGINIFPLGAMRLTQRSSNVRVSSGVVRLDEMCGGGFFKDSIILATGATGTGKTLLVSRFVENACANKERAILFAYEESRAQLLRNAYSWGMDFEEMERQNLLKIVCAYPESAGLEDHLQIIKSEINDFKPARIAIDSLSALARGVSNNAFRQFVIGVTGYAKQEEITGLFTNTSDQFMGAHSITDSHISTITDTIILLQYVEIRGEMSRAINVFKMRGSWHDKAIREFMISDKGPDIKDSFRNFERIISGSPTRITVDEKSELSRIVRGVQEKGPES
notes: KaiC of Synechococcus elongatus PCC 7942; source: plasmid a gift from E. K. O'Shea
B2: in data set [19], the “stoichiometry N” value was determined as 6.
